Assay results from the nanobody polyreactivity screen of Harvey et al. (2022).

Experiment: yeast display, Sf9 membrane polyspecificity reagent, FACS + sequencing; frameworks hold sequencing errors
Summary of the method: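 After 36–48 hours of galactose induction, yeast (Saccharomyces cerevisiae BJ5465) displaying a synthetic nanobody library were stained at 4 °C for 1 hour with 10% biotinylated, detergent-solubilized Sf9 membrane reagent. Streptavidin microbeads enriched the stained cells before FACS sorting into low and high (top ~1%) gates on anti-HA and streptavidin fluorescence. Each clone's polyreactivity label reflects its gate of origin.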

| Sequence | polyreactivity (PSR sort gate) |
| --- | --- |
| QVQLVESGGGLVQAGGSLRLSCAASGRTFVNYALGWYRQAPWKERELVAGISSDGSTYYADSEKGRFTISRDNAKNTVYLQMNSLKPEDTAVYYCATEIRITGLYRYDYWGQGTQVTVSS | low polyreactivity |
| QVQLVESGGGLVQAGGSLRLSCAASGRTFVPYAMGWYRQAPGKEREFVAVITWGGGSTYYADSVKGRFTISRDNAKNTVYLQMNSLKPEDTAVYYCAARNRRATGLGSRYGYWGQGTQVTVSS | high polyreactivity |
| QVQLVESGGGLVQAGGSLRLSCAASGRTFVPYAMGWYRQAPGKERELVATNNRSGGTTYYADSVKGRFTISRDNAKNTVYLQMNSLKPEDTAVYYCNKSPYYTVWSTRGNQFSRFYYWGQGTQVTVSS | high polyreactivity |
| QVQLVESGGGLVQAGGSLRLSCAASGRTFVPYAMGWYRQAPGKEREMVAAISQSGGRTYYTDSVKGRFTISRDNAKNTVYLLMNSLKPEDTAVYYCAARGPYRPPHGDAYYTYVYWGQGTQVTVSS | high polyreactivity |
| QVQLVESGGGLVQAGGSLRLSCAASGRTFVPYDMGLYRQAPGKERELVAAISSGDSTNYTDSVKGRFTISRDNAKNTVYLQMNSLKPEDTAVYYCAADLTYTMDHWGQGTQVTVSS | low polyreactivity |
| QVQLVESGGGLVQAGGSLRLSCAASGRTFVPYVMGWYRQAPGKERELVATINWSGGSTYYADSVKGRFTISRDNAKNTVYLQMNSLKPEDTAVYYCAADYYWTYSYYYERFDYWGLGTQVTVSS | low polyreactivity |
| QVQLVESGGGLVQAGGSLRLSCAASGRTFVPYVMGWYRQAPGKESELVASITSGGSTYYADSVKGRFTISRDNAKNTVYLQMNSLKPEDTAVYYCATRQSAERWGYYYWGQGTQVTVSS | low polyreactivity |
| QVQLVESGGGLVQAGGSLRLSCAASGRTFVRNAMGWYRPAPGKERELVAAISSIGDSTYYADSVKGRFTISRDNAKNTVYLQMNSLKPEDTAVYYCAAEWVTSYYNYYHWGQGTQVTVSS | low polyreactivity |
| QVQLVESGGGLVQAGGSLRLSCAASGRTFVRNAMGWYRQAPGKERELVAAISRGGRTNYADSVKGRFTISRDNAKNTVYLQMNSLKPEDTPVYYCATGAGYYSDYDYWGQVTQVTVSS | high polyreactivity |
| QVQLVESGGGLVQAGGSLRLSCAASGRTFVRNAMGWYRQAPGKERELVAAISSIGDSTYYADSVKGRFTISRDNAKNTVYLQMNSLKPEDTAVYYWAAEWVTSYYNYYHWGQGTLVTVSS | low polyreactivity |
| QVQLVESGGGLVQAGGSLRLSCAASGRTFVRNAMGWYRQAPGKERELVATIRSGGSTNYADSVKGRFTISRDNAKNTVYLQMNSLKPEDTAVYYCATQGSRARYDYYYWGQGTQVTVSS | high polyreactivity |
| QVQLVESGGGLVQAGGSLRLSCAASGRTFVRYAMGWYRQAPGKERELVARITSRGTSTYYADSVKGRFTISRDNAKNTVYLQMNSLKPEDTAVYYCNKVSTFREKSRYDYWGQGTQVTVSS | low polyreactivity |
| QVQLVESGGGLVQAGGSLRLSCAASGRTFVRYTMGWYRQAPGKERELVAAISISGGRTYYADSVQGRFTISRDNAKNTVYLQMNSLKPEDTAVYYCAKDYLGGQLASTGGYDYWGLGTQVTVSS | low polyreactivity |
| QVQLVESGGGLVQAGGSLRLSCAASGRTFVSNAMGWYRQAPGKERELVAAISGSGGITYYADSVKGRFTISRDNAKNTVYLQMNSLKPEDTAVYYCNADSSGWFPFDYWGQGTQVTVSS | low polyreactivity |
| QVQLVESGGGLVQAGGSLRLSCAASGRTFVSYAMGWYRQAPGKERELVADITIGGSTNYADSVKGRFTISRDNAKNTVYLLMNSLKPEDTAVYDCAAYYSYPWDTVTTVDLYDYWGQGTQVTVSS | low polyreactivity |
| QVQLVESGGGLVQAGGSLRLSCAASGRTFVSYAMGWYRQAPGKERELVATITGSTGGTYYADSVKGRFTISRDNAKNTVYLQMNSLKPEDTAVYYCAADRTTYTYYLPYDYWGQGTQVTVSS | low polyreactivity |

| Sequence | polyreactivity (PSR sort gate) |
| --- | --- |
| QVQLVESGGGLVQAGGSLRLSCAASGRTFVSYVMGWYRQAPGKERELVAAITWRGGSTYYADSVKGRFTISRDNAKNTVYLQMNSLKPEDTAVYYCAAPSHGSTSDRYYKFYYWGQGTQVTVSS | high polyreactivity |
| QVQLVESGGGLVQAGGSLRLSCAASGRTFVTNAMGWYRQAPGKERELVAAISSNGGSTYYADSVKGRFTISRDNAKNTVFLQMNSLKPEDTAVYYCNAEGQPLYVSWHDHRYIYGFDYWGQGTQVSVSS | low polyreactivity |
| QVQLVESGGGLVQAGGSLRLSCAASGRTFVTYAMGWYRQAPGKERELVAAISKRGSRTYYADSVKGRFTISRDNAKNTVYLQMNSLKPEDTAVYYCNADPYRTSYDYWGQGTQVTVSS | high polyreactivity |
| QVQLVESGGGLVQAGGSLRLSCAASGRTFVTYAMGWYRQAPGKERELVATINYSGGSTNYADSVKGRFTISRDNAKNTVYLQMNSLKPEDTAVYYCNTVPRQHRPGDYWGQGTQVTVSS | low polyreactivity |
| QVQLVESGGGLVQAGGSLRLSCAASGRTFVVNAMGWYRQAPGKEREFVAAISYRGDSTYYADSVKGRFTISRDNAKNTVYLQMNSLKPEDSAVYYCAARVLGPGRRYYYWGQGTQVTLSS | high polyreactivity |
| QVQLVESGGGLVQAGGSLRLSCAASGRTFVVNAMGWYSPAPGKEREFVAGISVRGGITYYADSVKGRFTISRDNAKNTVYLQMNSLKPEDTAVYYCAAYILDYGGDQRIFDYWGQGTQVTVSS | low polyreactivity |
| QVQLVESGGGLVQAGGSLRLSCAASGRTFVVYAMGWYRQAPGKERELVAAISYSGGSTYYADSVKGRFTISRDNAKNTVYLQMNSLKPEDTAVYYCAAVHLGYYHIYGLGYWGQGTQVTVSS | high polyreactivity |
| QVQLVESGGGLVQAGGSLRLSCAASGRTFVVYAMGWYRQAPGKERELVAGSGSTFYADSVKGRFTISPDNAKNTVYLQMNSLKPEDTAVYYCAADHPALYSLDWDTAYDYWGQGTQVTVSS | low polyreactivity |
| QVQLVESGGGLVQAGGSLRLSCAASGRTFVVYAMGWYRQAPGKERELVAVISFTGDSTFYADSVKGRFTISRDNSKNTVYLQMNSLKPEDTAVYYCAADFRRVFSKYSYYLYFDFDYWGQGTQVTVSS | low polyreactivity |
| QVQLVESGGGLVQAGGSLRLSCAASGRTFVWNAMGWYRQAPGKERELVAAITSGGSTNYADSVKGRFTISRDNAKNTVYLQMNSLKPEDTAVYYCAADWQYSPRMDYWGQGTQVTVSS | low polyreactivity |
| QVQLVESGGGLVQAGGSLRLSCAASGRTFVYNAMGWYRQAPGKERELVAAISAIDGSTYYADSVKGRFTISRDNAKNTVYLQMNSLKPEDTAVYYCAADTQLEASHKDRYEYDYWGQGTQVTVSS | low polyreactivity |
| QVQLVESGGGLVQAGGSLRLSCAASGRTFVYNAMGWYRQAPGKERELVAAISQSGGSTYYADSVKGRFTISRDTAKNSVYLQMNSLKPEVTAVYDCAARYTTGSYVRYNFWGQGTQVTVSS | high polyreactivity |
| QVQLVESGGGLVQAGGSLRLSCAASGRTFVYNAMGWYRQAPGKERELVATITSSGNTYYADSVKGRFTISRDNAKNTVYLQMNSLKPEDTAVYYCNRRYWTSGYWGQGTQVTVSS | high polyreactivity |
| QVQLVESGGGLVQAGGSLRLSCAASGRTFVYNAMVWYRQAPGKEREFVAAISWRGGSTFYADSVKGRFTISRDNAKNTVYLQMNSLKPEDTAVYYCAAEGWYYRYDYWGQGTQVTVSS | high polyreactivity |
| QVQLVESGGGLVQAGGSLRLSCAASGRTFVYYAMGWYRQAPGKERELVAAIRRDTRTYYADSVKGRFTISRDNAKNTVYLQMNSQTPEDTAVYYCAADDPWHYDFDYWGQGTQVTVSS | low polyreactivity |
